# Assay results published in US20220324957A1 (OPSIDIO, published 2022).
# Numbering of substitutions follows the chain as printed.
# B1: 5H10 VH0/VK0 (chimeric) (antibody, V domains shown)
# VH: QVQLQQSGAELVRPGSSVKISCKSSGYAFSSYWMNWVKQRPGQGLEWIGQIYPGDGDTHYNGKFKGKATLTADKSSSTAYMQLSRLTSEDSAVYFCSSSNWVGSYWGQGTLVTVSA
# VL: not shown
# notes: also called chimeric 5H10
# B2: humanized 5H10 VH3/VK3 (antibody, human IgG4, V domains shown)
# VH: QVQLVQSGAEVKKPGSSVKVSCKSSGYAFSSYWMNWVRQRPGQGLEWIGQIYPGDGDTHYNGKFKGKATLTADKSTSTAYMELSSLRSEDTAVYFCSSSNWVGSYWGQGTLVTVSS
# VL: DVVMTQSPLSLPVTLGQPASISCKSSQSLLESDGKTYLNWLQQRPGQSPRRLIYLVSRLDSGVPDRFSGSGSGTDFTLKISRVEAEDVGVYYCWQGTHLPQTFGGGTKVEIK
# notes: Only variable domains are tied to the name; Humanized from the chimeric antibody, which has a human IgG4 backbone and a kappa light chain
# B3: humanized 5H10 VH1/VK3 (antibody, human IgG4, V domains shown)
# VH: B2 VH with V11L, V20I, R38K, R87T, T91S
# VL: B2 VL
# notes: as for B2
# B4: humanized 5H10 VH4/VK3 (antibody, human IgG4, V domains shown)
# VH: B2 VH with K67R, A68V, L70I
# VL: B2 VL
# notes: as for B2
# B5: humanized 5H10 VH2/VK3 (antibody, human IgG4, V domains shown)
# VH: B2 VH with V20I, R38K
# VL: B2 VL
# notes: as for B2
# B6: humanized 5H10 VH3/VK2 (antibody, human IgG4, V domains shown)
# VH: B2 VH
# VL: B2 VL with S68T
# notes: as for B2
# B7: humanized 5H10 VH4/VK2 (antibody, human IgG4, V domains shown)
# VH: B2 VH with K67R, A68V, L70I
# VL: B2 VL with S68T
# notes: as for B2
# B8: murine 5H10 antibody (antibody, V domains shown)
# VH: B1 VH
# VL: not shown
# notes: Mouse hybridoma monoclonal with a kappa light chain; It was conjugated to a fluorescent marker for flow cytometry and to pHrodo red for the internalisation assay; also called OpSCF; m5H10
# Molecular target: T1, human stem cell factor isoform SCF248 (hSCF248) (human, UniProt P21583 26-273)
# T1 construct: also called soluble SCF
# T1 sequence (P21583 26-273 limits assumed): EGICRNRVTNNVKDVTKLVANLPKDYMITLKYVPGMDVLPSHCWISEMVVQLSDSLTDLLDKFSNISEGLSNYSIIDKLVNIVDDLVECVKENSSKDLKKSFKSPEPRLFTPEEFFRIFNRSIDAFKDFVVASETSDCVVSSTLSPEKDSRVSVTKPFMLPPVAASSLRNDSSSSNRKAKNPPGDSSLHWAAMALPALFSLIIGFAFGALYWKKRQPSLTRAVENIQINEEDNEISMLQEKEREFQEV
# Assay: binding score on Sl/Sl4 hSCF248 cells
row,Binder,binding result
1,B1,binds
2,B2,binds
3,B3,binds
4,B4,binds
5,B5,binds
6,B6,binds
7,B7,binds

# Molecular target: T1, human stem cell factor isoform SCF248 …
# Assay: flow cytometry, directly labelled antibody on Sl/Sl4 hSCF248 cells
# Procedure: Binding of the labeled antibody to the cells was assessed by flow cytometry.
row,Binder,binding result
1,B8,binds
